Assay results published in the supplement of paper PMC9170038.

Tested on: MS2 coat protein
Test: apparent KD of MS2 coat protein; designed switch direction (-1 OFF switch, 1 ON switch): -1; higher = weaker reporter binding
Method in brief: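 The buffer was Tris-HCl pH 7.5 with KCl, MgCl2, BSA, DTT, tRNA and Tween-20. In it, SNAP-549-labelled MS2 coat protein was titrated in doubling steps from 0.7 or 1.5 nM to 3 µM over chip-bound RNA switches transcribed by stalled E. coli RNA polymerase on Illumina chips. Apparent KD is the per-design median over clusters of curve fits to normalised fluorescence.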

[1] = Eterna round: R95, input ligand: FMN 200 uM
[2] = Eterna round: R95, input ligand: microRNA oligo, concentration not stated
[3] = Eterna round: R95, input ligand: none
[4] = input ligand: microRNA oligo, concentration not stated

| Sequence | apparent KD of MS2 coat protein (input ligand: FMN 200 uM) [nM] | apparent KD of MS2 coat protein (input ligand: none) [nM] | apparent KD of MS2 coat protein [1] [nM] | apparent KD of MS2 coat protein [2] [nM] | apparent KD of MS2 coat protein [3] [nM] | apparent KD of MS2 coat protein [4] [nM] |
| --- | --- | --- | --- | --- | --- | --- |
| GCAUCGUAAGGAUAUCAGCCGGUGGUAUACCGAAACAGGGUUGAGAAGGUACAUGAGGAUCACCCAUGUGAUUU [Eternabot (L2) Solution 37] (Eterna round: R97, puzzle: Exclusion 4) | 203 | 58.6 |  |  |  |  |
| GCAUGCUUUUUGCUCGUUUACAUGAGGAUCACCCAUGUACAUGGGUGAGCCGCAUGUACAGAAAGGAAAACUUUUUG [Alacar Attempt 2] (Eterna round: R97, puzzle: Sensor, turn-off variant 1) | 21.1 | 24.7 |  |  |  |  |
| GCCAAUGUGGAGGAUAUCGACUUCGAAAGAAGUCGAGAAGGCCACACAUGAGGAUCACCCAUGUGAUGCCAGGC [Omei Ex6 H10] (Eterna round: R97, puzzle: Exclusion 6) | 216 | 189 |  |  |  |  |
| GCCAGAGCAGGAUAUUCAAAACCUCACAUGAGGAUCACCCAUGUGGCCGAAAGGCCGGGAGGAGAAGGGCUCUGGC [Fiskers Ex 5 - 1] (puzzle: Exclusion 5) |  |  | 49.8 | 13.3 | 15.8 |  |
| GCCAGAGCAGGAUAUUCAAUAUUCCACAUGAGGAUCACCCAUGUCCAGCGAAAGCUGGAGGGAGAAGGGCUCUGGC [Fiskers Ex 5 - 8] (puzzle: Exclusion 5) |  |  | 27.3 | 43.6 | 56.3 |  |
| GCCAGAGCAGGAUAUUGAAUAAUUCACAUGAGGAUCACCCAUGUCCAGCGAAAGCUGGAACGAGAAGGGCUCUGGC [Fiskers Ex 5 - 5] (puzzle: Exclusion 5) |  |  | 12.5 | 11.7 | 11.1 |  |
| GCCAGAGCAGGAUAUUUAUAUUAUCACAUGAGGAUCACCCAUGUCCAGCGAAAGCUGGAGGGAGAAGGGCUCUGGC [Fiskers Ex 5 - 25] (puzzle: Exclusion 5) |  |  | 121 | 190 | 250 |  |
| GCCAGAUCAGGAUAUCUAAUAUAUCACAUGAGGAUCACCCAUGUCCAGCGAAAGCUGGAGGGAGAAGGGAUCUGGC [Mat - Exclusion 5 - Eli mod - D102] (puzzle: Exclusion 5) |  |  | 39.8 | 79.8 | 48.2 |  |
| GCCAUGGGAGGAUAUACGUCAUAGGUUACCUCACGCUGGCGACAUGAGGAUCACCCAUGUAGAAGGCUCAGAUG [Eternabot (L2) Solution 12] (Eterna round: R97, puzzle: Exclusion 2) | 101 | 113 |  |  |  |  |
| GCCCGGCCUGUAGGAUAUGGUUCCGUUUCGGUUCCAGAAGGACACGAGGAUACAUGAGGAUCACCCAUGUGCUCGUCACCGGGC [salish99_ExNG1_r04_403] (Eterna round: R96, puzzle: Exclusion NG 1) | 8.67 | 11.3 |  |  |  | 8.6 |
| GCCCGGCGUGUAGGAUAUGGUUCCGUUUCGGUUCCAGAAGGACAUGAGGAUCACCCAUGUGCCUGUCGUCGGUCGUCACCGGGC [salish99_ExNG1_r04_401] (Eterna round: R96, puzzle: Exclusion NG 1) | 11.1 | 12.4 |  |  |  | 9.87 |
| GCCGAAAAUGUGAGGAUAUACCUAUGGAAACAUAGGUAGAAGGCACAUGAGGAUCACCCAUGUCCAAUAACGGC [Mat - Exclusion 4 - Eli Mod - D25] (Eterna round: R97, puzzle: Brourd's mod of Exclusion 4) | 664 | 287 |  |  |  |  |
| GCCGAAAGUGUGAGGAUAUACCUAUGGAAACAUAGGUAGAAGGCACAUGAGGAUCACCCAUGUGUCCAAACGGC [Mat - Exclusion 4 - Eli Mod - D23] (Eterna round: R97, puzzle: Brourd's mod of Exclusion 4) | 41.5 | 16.5 |  |  |  |  |
| GCCGAAUAAGUGAGGAUAUACCUAUGGAUACAUAGGUAGAAGGCACAUGAGGAUCACCCAUGUACCUCAACGGC [JL-BMX4-4.16 Eli mod] (Eterna round: R97, puzzle: Brourd's mod of Exclusion 4) | 34.5 | 14.8 |  |  |  |  |
| GCCGAUUAAGUGAGGAUAUACCUAUGGAUACAUAGGUAGAAGGCACAUGAGGAUCACCCAUGUUCCUCAACGGC [Fiskers BMX 4 - 6] (puzzle: Brourd's mod of Exclusion 4) |  |  |  | 15 |  |  |
| GCCGAUUAAGUGAGGAUAUACCUAUGGAUACAUAGGUAGAAGGUACAUGAGGAUCACCCAUGUUCCUCAUCGGC [Fiskers BMX 4 - 10] (puzzle: Brourd's mod of Exclusion 4) |  |  |  | 9.97 |  |  |
| GCCGUAAAUGUGAGGAUAUACCUAUGGAUACAUAGGUAGAAGGCACAUGAGGAUCACCCAUGUCCUUAAUCGGC [Eli BMX r4m3] (Eterna round: R97, puzzle: Brourd's mod of Exclusion 4) | 730 | 409 |  |  |  |  |
| GCCGUAAGUGUGAGGAUAUACCUAUGGAAACAUAGGUAGAAGGCACAUGAGGAUCACCCAUGUUCUCAAUCGGC [Mat - Exclusion 4 - Eli Mod - D5] (Eterna round: R97, puzzle: Brourd's mod of Exclusion 4) | 458 | 245 |  |  |  |  |
| GCCGUACAUGAGGAUCACCCAUGUCAGGAUAUUUAGCACUCGGAGUUCCCGAGAGGUCAAAGAAGGGACAUUGC [EX1 C.17] (Eterna round: R97, puzzle: Exclusion 1) | 21.6 | 17.4 |  |  |  |  |
| GCCGUCAAUGUGAGGAUAUGCCUAUGGAUACGUAGGCAGAAGGCACAUGAGGAUCACCCAUGUCCAAAGACGGC [JL-BMX4-4.31 Eli mod] (Eterna round: R97, puzzle: Brourd's mod of Exclusion 4) | 2170 | 200 |  |  |  |  |
| GCCGUUAAAGGAUAUACAUGAGGAUCACCCAUGUCGGUAUAAAAUUUACCGCCUCCCUGUAGAAGGUUAAGGCA [Xebiatorer] (puzzle: Exclusion 3) |  |  |  | 16.1 |  |  |
| GCCGUUAAGGUAGGAUAUGCUCGGUCUGUUCGUGCAGAAGGGCUGGUCGGCGACUUGAGGAUCACCCAAGUGGUCUUAUAGAAA [Mutated MS2 EX1.19] (Eterna round: R96, puzzle: Exclusion NG 1) | 99.6 | 54.8 |  |  |  | 52.3 |
| GCCUAACAUGAGGAUCACCCAUGUCAGGAUAUCCAUAAACACCGGGAUGUACUGGACGGGAGAAGGGACAGGGC [Escelazari] (Eterna round: R97, puzzle: Exclusion 1) | 53.5 | 51.4 |  |  |  |  |
| GCCUCACAUGAGGAUCACCCAUGUCAGGAUAUCUCGUGCGCAGUAAUUAUCUGGCUAAAGAGAAGGGACAUUAA [Bedile] (puzzle: Exclusion 1) |  |  |  | 46.6 |  |  |
| GCCUGAGCAGGAUAUUCAAUAAUUCACAUGAGGAUCACCCAUGUCCAGCGAAAGCUAGGAGGAGAAGGGCUCAGGC [Mat - Exclusion 5 - Eli mod - D86] (puzzle: Exclusion 5) |  |  | 18.3 | 16.5 | 17.8 |  |
